This is an account of results in patent publication US20060281899A1, “Mutants of biotin binding protein” (priority 2002, published 2006).

Several values for one entry are separate records, joined by “and”; a condition that tells them apart may be missing. Identical values can stand only once. Like-named read-outs stand apart in the source and are kept apart here.

One may read the Kd as the constant that tells how readily two partners part at equilibrium. By ΔTm is commonly meant the shift of the melting midpoint relative to a reference.

Series [1] can be described thus: Non-reducing SDS-PAGE thermostability, oligomeric forms after boiling. Format: physicochemical. The following applies: boiled 20 minutes. Here is the method:
(§1) The heat stability of the AVRs was studied by using an SDS-PAGE-based method (Bayer, E. A., Ehrlich-Rogozinski, S. and Wilchek, M. (1996) Electrophoresis 17, 1319-1324). In this method, each protein sample was divided into two fractions one of which was kept biotin-free and the other was supplemented with an excess of biotin. The samples were then mixed with denaturing SDS-PAGE sample buffer (containing β-mercaptoethanol) and incubated at a given temperature for 20 minutes. After heat treatment, the samples were subjected to SDS-PAGE and visualised by staining with Coomassie brilliant blue. The relative proportions of tetrameric and monomeric forms of the AVR proteins (with avidin as the control) were detected. A similar assay, with β-mercaptoethanol omitted from the sample buffer, was performed to examine the presence of intersubunit disulfide-bridges. Sensitivity to proteinase K was studied both in the absence and in the presence of biotin as described (Laitinen, O. H., Airenne, K. J., Marttila, A. T., Kulik, T., Porkka, E., Bayer, E. A., Wilchek, M. and Kulomaa, M. S. (1999) FEBS Lett. 461, 52-8). The isoelectric point of each AVR was determined by isoelectric focusing as previously reported (Marttila, A. T., Airenne, K. J., Laitinen, O. H., Kulik, T., Bayer, E. A., Wilchek, M. and Kulomaa, M. S. (1998) FEBS Lett. 441, 313-317). The glycosylation patterns of the AVR proteins were studied by treating the proteins with Endo Hf and PNGase F glycosidase according to the manufacturer's instructions (New England Biolabs, Mass., USA).

The nature of series [2]: IASyS reversibility of biotin binding of avidin and AVRs. The following applies: biotin cuvette, after addition of free biotin (0.17 mg/ml). Here is the method: The reversibility of biotin binding was studied as follows: Avidin and the AVRs were allowed to bind to a biotin-coated cuvette. After measuring the initial binding (A) as described above, biotin-saturated (0.17 mg/ml) buffer was injected into the cuvette and the amount of proteins remaining bound was measured until no dissociation was seen, again as compared to the negative control cuvette (B). The measurement time was at least 20 minutes. The percent reversibility was calculated as follows: reversibility (%)=100*(A−B)/A. A−B is the amount of liberated proteins after biotin adding.

The nature of series [3]: IASyS optical biosensor, AVR binding in a biotin cuvette. Particulars: for kass / kdiss: biotin cuvette (as for Kd of these proteins); for Kd: biotin cuvette, 20.0° C. As to the method: The biotin-binding characteristics of the AVR proteins were studied as previously described using the IASyS optical biosensor (Marttila, A. T., Airenne, K. J., Laitinen, O. H., Kulik, T., Bayer, E. A ., Wilchek, M. and Kulomaa, M. S. (1998) FEBS Lett. 441, 313-317; Laitinen, O. H., Airenne, K. J., Marttila, A. T., Kulik, T., Porkka, E., Bayer, E. A., Wilchek, M. and Kulomaa, M. S. (1999) FEBS Lett. 461, 52-8). Affinities were measured for 2-iminobiotin or biotin at 20.0° C. using a stirring power of 100%. Briefly, the protein under study in biotin-free buffer was allowed to bind to the biotin-coated surface of the IASyS cuvette. As a negative control, the protein under study was saturated with excess biotin prior to (and was also maintained under biotin excess upon) addition to the cuvette. Under these conditions, residual binding to the biotin surface of the cuvette could be regarded as unspecific, and was used as a measure of baseline variation. Binding equilibrium in the experimental cuvette was considered to be attained after no binding was detected as compared to negative control.
The actual dissociation constants (Kd) were calculated for the AVRs according to the kass and kdiss rates measured in a separate assay in different protein concentrations (varying between 10 μM and 100 pM) (Table 4 and FIG. 6). The binding seemed to follow two-order or even more complex kinetics. However, the first 1000 seconds of the binding fitted considerably well to the bi-phasic curve. All measured dissociation rate constants (kdiss) followed the first-order kinetics. Because of the extremely high binding, affinities of the AVRs for biotin could not be determined except for AVR1, AVR2 and AVR7. Binding to 2-iminobiotin was determined only for AVR4/5, and it was similar to that of avidin. The lack of binding for the other AVRs was surprising, since most of them were purified using 2-iminobiotin agarose.

The nature of a further series: Isoelectric focusing. Format: physicochemical. Here is the method:
as §1

Series [4] in a line: Differential scanning calorimetry of avidin and AVR4/5 forms. Format: physicochemical. Here is the method: The thermodynamics of the heat-induced unfolding of the proteins were studied using DSC. The transition midpoint of heat-induced denaturation (Tm) of the avidin and different AVR4/5 forms was studied using a Nano II differential scanning calorimeter (Calorimetric Sciences Corporation, Provo, Utah, USA). The reference cell was filled with buffer whereas the sample cell was filled with proteins dissolved in 50 mM sodium phosphate buffer, pH 7.0 containing 100 mM NaCl. Avidin and AVR4/5(C124S) were also analyzed in 50 mM Na-acetate pH 4.0 containing 100 mM NaCl. Furthermore, AVR4/5 was analyzed in the presence of 2-mercaptoethanol (0.4% v/v). The samples (1.6-9.6 μM) were analyzed both in the absence and presence of a three fold molar excess of biotin/subunit. All samples were degassed before being loaded into the DSC. The thermograms were recorded as a function of temperature; between 25 and 130° C. at a rate of 55.6° C./h (Gonzalez, M., Argarana, C. E. & Fidelio, G. D. (1999) Biomol. Eng. 16, 67-72; Nordlund, H. R., Laitinen, O. H., Uotila, S. T., Nyholm, T., Hytönen, V. P., Slotte, J. P. & Kulomaa, M. S. (2003) J. Biol. Chem. 278, 2479-2483). Data was analyzed using Microcal Origin 6.0 and Cpcalc 2.1 (Applied Thermodynamics, Hunt Valley, Md.). The change in heat capacity upon unfolding (ΔCp) was measured for avidin and AVR4/5(C124S) using DSC data from measurements in pH 4.0 and 7.0. ΔCp was then obtained from the slope of ΔH vs. Tm (Liu, Y. & Sturtevant, J. M. (1996) Biochemistry 35, 3059-3062).

[5] abbreviates: read-out: Kd calculated directly from the binding curves.
Setting [6] is: read-out: Kd calculated from the equilibrium response data.

B1: AVR1: Recombinant chicken avidin-related protein 1, produced in Sf9 insect cells (protein, UniProt O13153 25-150, looked up)
Avidin-related protein 1: ARKCSLTGKWDNDLGSIMTIGAVNDNGEFNGTYITAVADNPGNITRSPLLGIQHKRACQPTFGFTVHWNFSESTSVFVGQCFVDKSGKEVLKTKWLQRLAVDDISDDWKATRVGNNDFTRQRTVEE
For B1, in series [1], the “Dimeric form, relative proportion” value came to 40 percentage; the “Monomeric form, relative proportion” value is given as 40 percentage; the “Tetrameric form, relative proportion” value came to 20 percentage. For the same molecule, in series [2], the “Reversibility of biotin binding” value is 18% and 18 ± 10%. In addition, in series [3], the kass entry was “(5.5 ± 1.5) × 10^4 M^−1 s^−1” and the kdiss entry is “(2.4 ± 0.8) × 10^−3 s^−1”. Besides, the Kd in series [3] (setting [5]) is 44 nM. Also, in series [3] (setting [6]), the Kd is 100 nM. Moreover, the “pI by isoelectric focusing” value in “Isoelectric focusing” is listed as “≈ 7”.

B2: AVR6: Recombinant chicken avidin-related protein 6, produced in Sf9 insect cells (protein, UniProt P56735 25-150, looked up)
Avidin-related protein 6: ARKCSLTGEWDNNLGSIMTIGAVNDNGEFNGTYITAVADNPGNIKLSPLLGIQHKRACQPTFGFTVHWNFSESTSVFVGQCFVDRSGKEVLKTKWLQRLAVDDISDDWKATRVGYNNFTRQRTVEE
Regarding B2, in series [1], the “Dimeric form, relative proportion” value is recorded as 50 percentage and the “Monomeric form, relative proportion” value turned out to be 50 percentage. Also, the “Reversibility of biotin binding” value in series [2] turned out to be 5 ± 3%. In addition, the Kd in series [3] (setting [6]) was less than 10 nM. Also, in the series “Isoelectric focusing”, the “pI by isoelectric focusing” value was “≈ 7”.

B3: AVR2: Recombinant chicken avidin-related protein 2, produced in Sf9 insect cells (protein, UniProt P56732 25-150, looked up)
Avidin-related protein 2: ARKCSLTGEWDNDLGSIMTIGAVNDNGEFDGTYITAVADNPGNITLSPLLGIQHKRASQPTFGFTVHWNFSESTSVFVGQCFVDRSGKEVLKTKWLQRLAVDDISDDWIATRVGNNDFTRQHTVEE
As for B3, in series [1], the “Monomeric form, relative proportion” value is listed as 100 percentage. The “Reversibility of biotin binding” value in series [2] is given as 94 ± 3%. Besides, in series [3], the kass entry is given as “(1.8 ± 0.1) × 10^4 M^−1 s^−1” and the kdiss result is on record as “(4.6 ± 1.1) × 10^−3 s^−1”. Besides, the Kd in series [3] (setting [5]) was 52 nM. Further, the Kd in series [3] (setting [6]) was 1700 nM. In the series “Isoelectric focusing”, the “pI by isoelectric focusing” value is “≈ 5”.

B4: AVR7: Recombinant chicken avidin-related protein 7, produced in Sf9 insect cells (protein, UniProt P56736 25-150, looked up)
Avidin-related protein 7: ARKCSLTGEWDNNLGSNMTIGAVNDNGEFNGTYITAVADNPGNIKLSPLLGIQHKRACQPTFGFTVHWNFSESTSVFVGQCFIDRSGKEVLKTKWLQRLAVDDISDDWKATRVGYNNFTRQRTVEE
For B4, in series [1], the “Dimeric form, relative proportion” value was 20 percentage and the “Monomeric form, relative proportion” value stood at 80 percentage. For the same molecule, the “Reversibility of biotin binding” value in series [2] was 3 ± 3%. In addition, in series [3], the kass entry is recorded as “(1.8 ± 0.2) × 10^5 M^−1 s^−1”. In series [3] (setting [6]), the Kd was 4.5 nM. Besides, in the series “Isoelectric focusing”, the “pI by isoelectric focusing” value was “≈ 7”.

B5: AVR4/5 + 2-mercaptoethanol: AVR4/5 analyzed in the presence of 2-mercaptoethanol (0.4% v/v) (protein, UniProt P56734 25-150, looked up)
Avidin-related protein 4/5: ARKCSLTGKWTNNLGSIMTIRAVNSRGEFTGTYLTAVADNPGNITLSPLLGIQHKRASQPTFGFTVHWNFSESTTVFTGQCFIDRNGKEVLKTMWLLRSSVNDISYDWKATRVGYNNFTRLCTVEE
modifications: with 2-mercaptoethanol
For the molecule B5, the “DSC Tm(−biotin)” value in series [4] (50 mM sodium phosphate pH 7.0, 100 mM NaCl) amounted to 106.5 ± 0.3 °C. In addition, in series [4] (change in Tm upon addition of a three-fold molar excess of biotin), the ΔTm amounted to 18.7 °C. The molecule also registered a ΔH of unfolding in series [4] (sample without biotin) of 169 ± 6.21 kcal/mol. In addition, in series [4] (three-fold molar excess of biotin, pH 7.0), the “DSC Tm (+biotin)” value came out at 125.2 ± 0.1 °C.

B6: AVR3: Recombinant chicken avidin-related protein 3, produced in Sf9 insect cells (protein, UniProt P56733 25-150, looked up)
Avidin-related protein 3: ARKCSLTGKWTNNLGSIMTIRAVNSRGEFAGTYLTAVADNPGNIKLSPLLGIQHKRACQPTFGFTVHWNFSESTSVFVGQCFIDRSGKEVLKTKWLQRLAVDDISDDWKATRVGYNNFTRQRTVEE
For B6, in series [1], the “Dimeric form, relative proportion” value is 50 percentage and the “Monomeric form, relative proportion” value is 50 percentage. Further, the “Reversibility of biotin binding” value in series [2] is reported as 3 ± 2%. Further, the Kd in series [3] (setting [6]) was less than 10 nM. For the same molecule, the “pI by isoelectric focusing” value in “Isoelectric focusing” is on record as “≈ 10”.
